This data set can be described thus: soluble on expression in E. coli; label from the status in PepcDB or PDB records.
Regarding “MSLPTTIQAISAEAINLPLTEPFAIASGAQAVAANVLVKVQLADGTLGLGEAAPFPAVSGETQTGTSAAIERLQSHLLGADVRGWRKLAAMLDHAEHEAAAARCGLEMAMLDALTRHYHMPLHVFFGGVSKQLETDMTITAGDEVHAAASAKAILARGIKSIKVKTAGVDVAYDLARLRAIHQAAPTAPLIVDGNCGYDVERALAFCAACKAESIPMVLFEQPLPREDWAGMAQVTAQSGFAVAADESARSAHDVLRIAREGTASVINIKLMKAGVAEGLKMIAIAQAAGLGLMIGGMVESILAMSFSANLAAGNGGFDFIDLDTPLFIAEHPFIGGFAQTGGTLQLADVAGHGVNLEGHHHHHH”, the “soluble on expression in E. coli” value is listed as “soluble”.
“MSLQASEQVPSIQIGEPGVTVEAGDHICAFYPTLAERDEILLPYLSEGMLAGEKCIAVLDTDDLDGIRQAVSGQGLPSPKDGNQLELRRSRNAYLANGSFETEAMLKFWEDHVGAAVAEGFPFARVAGEMTWALSNLPGVDQLVGYEAKLNRLLPRYPQVVLCLYELERFDGEVLVDVLKTHPKVLLGGMVLDNPYYLEPEEFLASREGHHHHHH”: the “soluble on expression in E. coli” value is recorded as “soluble”.
Then “MSLQDDDFSLFKSEMRGVKRISVDRADTGKPRNDRQQLKQRQLNASVRNDEIRVDGLSDQFVIDVGPEDELSWARDGVQESQLRKLKQGLVPFDGSLDLHGMSVEKARQTLWDFLAEATRLEIRCVRVTHGKAARKDGRSPLVKSHVNTWLRQHPQVLGFTSCLPRHGGTGSVYVMLRRTMLEGRDEEGHHHHHH”, with “soluble”; and “MSLQDVDFHIPFPSRRSPDFERARADHLSWPRALGLIGTDAAAERHSRGGYADLAARFYPSATGADLDLGVDLMSWFFLFDDLFDGPRGEDPQETRKLTDAVAAALDGPLPTSAPPIAHGFADVWRRTCQGMSPAWRARSARHWRNYFSGYVDEAVSRHLNTPYDSAGHYLAMRRQTIGVQPTVDLAERSCHCEVPQRVFDSAVLFAMLQIATDTNLILNDIASLEKEEARGELNNMVFILMREHGWTRGRSIAHMQDGVRTRLEQFLLLEACLPKVYDTFELTAQERESAEKYRMDGVRSVIRGSYDWHRSSGRYAADYAEGHHHHHH”, with “soluble”.
Turning to “MSLQEELSVLLKAQYPLIYLVTSEEERAEQAVYRIVQEVTRHQRLFVWTVTHGFREYGVAQQKTHHNTMSPEAAIEWVVRQEPGIFIFKDLHPFISSPAVTRWLREAIASFKGTEKAIILMSPYQETPIELEKDVVVLDFALPDLVTLDGVLGQQLGKSRHALGEDSREKLLKAALGLTKDEAEKVYRKAYVKAGQLTEGEVEIVLSEKKQMIRRNEGHHHHHH”, the “soluble on expression in E. coli” value was “soluble”.
Then “MSLQHNELKTPYFMINEDKLIANLEKAKQLKEISGVKLVLALKCFSTWGVFDIIKPYLDGTTSSGPFEVKLGYETFGGETHAYSVGYSEDDVREVADICDKMIFNSQSQLAAYRHIVEGKASIGLRLNPGVSYAGQDLANPARKFSRLGVQADHIKPEVFEGIDGVMFHMNCENKDVDAFIGLLDAISEQFGEYLNKLDWVSMGGGVFFTWPGYDIEKLGLALKAFSEKHGVQMYLEPGEAIITKTTDLVVTVVDIVENVKKTAIVDSATEAHRLDTLIYNEPASILEASDNGEHEYVIGSCSCLAGDQFCVANFDQPLEIGQRLHILDSAGYTMVKLNWFNGLRMPSVYCERSSGEIQKLNEFDYSDFKRSLSEGHHHHHH”, with “not soluble”.
As for “MSLQLDLLPPQDRGQVHSVFVVVPRFNLTTLITMIETMRIGNYLSSERLFSWEVTSFDGLNLGASNGVRVHLDVEPDQTAPADQVFVLASWGGEHYQNKALASWLRKRARQGERICAVELGCYLVARAGLMDGKEATTHWSWINGFQEKFDQISVVEQLFTIDGRILTCAGGMAGVDLMLRLIEQSHGAGFSGEIADQMLHNEGHHHHHH”, the entry is “soluble”.
Consider “MSLQLKSEKARIILSGEPTLLIDKGKIDISALKSQRLNINDLMEELRLKNYFNVEDIEYAILETSGQISLIPKTHLTNATKEDLNLKVKQENVPITIILDGKVNTDNIKYLNKDADWLMKELKKNKIDSPKDVFLALIDSKGKFYYQKYNNEGHHHHHH”, for which the “soluble on expression in E. coli” value was “not soluble”.
In the case of “MSLQPSKRYEIGISQTIGKNDRMQDTANVLGELFPNIDIIGIFDGHNGEEAARYCLISMKNEFNCLNPKDCEHQLPQIFESIHNNISSQTISGTTASICIIRSDDVVLAHVGDSPIYFYENGGKVINIKGVDRVNGQINLSRSLGDKLLQPPLTYKPDISIHSLSMKYIVIVTDGVTDSLSDSEMEIILSQPLSPDQIAATIRNNAFINGSVDNISVIVIQIIEGHHHHHH”, the “soluble on expression in E. coli” value was “soluble”.
On to “MSLQSEKTEAVVTLGANLTKSERLQMLDAFGVKANEVKIIDVTNQDIREQLGLDTSKPIPASSQSISSSYVVVKDKGGINVTTNNLTEVTGSMLANALLTSGVNNADVKADAPFKVTGTAALAGILKGFEDASGEELSLPKKEAAREEISLTNNLSNAKTKDGQTLGKDEAAVVVNDIKTDVIKDKPKNDEEIGKIVNNVTNNYNILLTQGQQEQTIKFMSKINDLDYNYGAMKESLNQMNDKLQQILKDTGKQLEESGLLEKALNGIKNVLVDIKDFLVNMFSSASEKVKDGITYDENGNIVIKTGNNSDESKNEESIQDKPQTQSNDNNQNQENEQGQNQTKEGHHHHHH”, for which the “soluble on expression in E. coli” value is “not soluble”.
Consider “MSLQTAAAPTPAPVAAAPALPQGQVNIAVGSLKCKAEKCYGGLGEGIGDALTTALLNTGKFAVYERENTAQLTEEAFLNGGATFQGADVLIFGAITQYEPQASSGGLSFMGVSVGKKSSTIAMDLRIVDAKTRRIIGATQVQGKAEGNNFNVSGLLPVNVGAQSSPQLEAAISQMLNNAAQQLLLKVPASYYKEEGHHHHHH”, for which the “soluble on expression in E. coli” value is reported as “soluble”.
As for “MSLQTQDIIRRSGTNSLTPPPQVRDHQEPVAKLIDVTTCIGCKACQVACSEWNDIRDEVGHNVGVYDNPADLTAKSWTVMRFSEVEDEESGKLEWLIRKDGCMHCADPGCLKACPSEGAIIQYANGIVDFQSEHCIGCGYCIAGCPFDVPRMNKDDNRVYKCTLCVDRVGVGQEPACVKTCPTGAIHFGTKESMKEVAAGRVAELKTRGFDNAGLYDPAGVGGTHVMYVLHHADKPQLYHGLPENPTISPTVTFWKGIWKPLAAVGFAATFAASIFHYVGVGPNRVEEEEEDDETTDPTPSETVAKAPEQTTSERSDEGETRK”, the entry is “not soluble”.
“MSLQTRPILVVGATGKTGSRVAAKLEAKGAAVRRGSRHAEIPFDWESPATWAPALSGVSRAYVTYFPDLAFPGAVEKLEAFTKVAAASGLDQIVLLSGRGEHHARLGEKVVETSGIPFTIVRAAWFAQNFSEGYLRDPVVAGVLPMPGGDIAEPIIDIDDIADVVVAALSEDGHAGQLYEVTGPRLMTFAEMAKVLSTATGRPIRHLPISFEDFHANVAAAGGEFVADVFTAIARETLDGRNAYVSDGVERALGRKPRDFAAFAAAAASQGLWTAAEGHHHHHH”: the “soluble on expression in E. coli” value is “soluble”.
As for “MSLQVFGVSRSGYYNWVQHEPSDRKQSDERLKLEIKVAHIRTRETYGTRRLQTELAENGIIVGRDRLARLRKELRLRCKQKRKFRATTNSNHNLPVAPNLLNQTFAPTAPNQVWVADLTYVATQEGWLYLAGIKDVYTCEIVGYAMGERMTKELTGKALFMALRSQRPPAGLIHHSDRGSQYCAYDYRVIQEQFGLKTSMSRKGNCYDNAPMESFWGTLKNESLSHYRFNNRDEAISVIREYIEIFYNRQRRHSRLGNISPATFREKYHQMAAEGHHHHHH”, the entry is “not soluble”; as for “MSLRAELNQGLIDFLKASPTPFHATASLARRLEAAGYRRLDERDAWHTETGGRYYVTRNDSSLIAIRLGRRSPLESGFRLVGAHTDSPCLRVKPNPEIARNGFLQLGVEVYGGALFAPWFDRDLSLAGRVTFRANGKLESRLVDFRKAIAVIPNLAIHLNRAANEGWPINAQNELPPIIAQLAPGEAADFRLLLDEQLLREHGITADVVLDYELSFYDTQSAAVVGLNDEFIAGARLDNLLSCHAGLEALLNAEGDENCILVCTDHEEVGSCSHCGADGPFLEQVLRRLLPEGDAFSRAIQRSLLVSADNAHGVHPNYADRHDANHGPALNGGPVIKINSNQRYATNSETAGFFRHLCQDSEVPVQSFVTRSDMGCGSTIGPITASQVGVRTVDIGLPTFAMHSIRELAGSHDLAHLVKVLGAFYASSELEGHHHHHH”, “soluble”; as for “MSLRCLVTGATGYVGGRLVPELLDAGHRVRCLARSPDRLRDHPWAGKAEVVRGDVTDADSVARAMEGVDVAYYLVHALGSGDDFEATDRRAARTFAERAAAAGVRRIVYLGGLTPAGVPEGELSPHLRSRTEVGRILLASGVPTTVLRAAVVIGSGSASFEMLRYLTERLPVMVTPSWVHTRIQPVAVRDVLRALVGSATMPREVSRTFDVGGPDILTYREMMERYARVAELPRRLILPVPMLSPGLSSHWVGLVTPVPAAIARPLTESLRHEVVCGENDIVRYVPPPPGYPLGFDDALRLALQRVREARVTTRWSSASVPGAPSDPLPTDPDWAGGSLYTDDRALGVDAPPDALWRVVEGIGGDHGWYSFPLAWAVRGWLDRLVGGVGLRRGRRDAARLRVGDSLDFWRVEEIVPGRLLRLRAEMRLPGLAWLEMYAETDDAGRTRYRQRALFHPHGLAGHAYWWSVSPFHAVVFGGMARNIARAAARAAEGHHHHHH”, “not soluble”.
As for “MSLRDLKTLLIVIDGVSYSVFNQFRYNLDTMNNLIENGSFGKLESVFPTITPVALASLFTGYLPLNHGITSTKIFIKGNSLSKPLSAHSSTPLKVDPIWYLLAKKGYKVVVASAPQALPDKWKLKNLTLFDPYKSKIKECSDGALLNIGNTTINEVNFDIESNNNEYTIKITDIENNTLSLKLRQNEWTSPLEVIMGCKGKEMKGTFRLKGLSNGVYLTPVSFLIPSWSNNQELQNEIWENVVKKYGMLLDGDYISLKSNIIGFSEYYETLKFAYEFFYNYSLYLLKREEWDFAITYLPIVDNIQHLLFGVDDSQSLDYVFQVYKMADNFVKAHIELADNIIICSDHGINKVKKRLYLNKFLEELNVLKTVDDKKIDWKRTKAYYGGGGIIRINLREREKFGIVGKKEFNKLIKYLTINLERLEDPDTGERIFTVIYSNETPASDRQGDIMIDGVNPKYSISSNIEKDTIFENVIPYRTTTADHGYYRNDDINGIIIFYGKNFTKKQVNMKIVDVTPTILKLYGINCKSDGKIVNEVFKNGHADSTKEGHHHHHH”, the entry is “not soluble”.
As for “MSLRHDFVFSGVIMLELNAKTTALVVIDLQEGILPFAGGPHTADEVVNRAGKLAAKFRASGQPVFLVRVGWSADYAEALKQPVDAPSPAKVLPENWWQHPAALGATDSDIEIIKRQWGAFYGTDLELQLRRRGIDTIVLCGISTNIGVESTARNAWELGFNLVIAEDACSAASAEQHNNSINHIYPRIARVRSVEEILNALEGGSHHHHHH”, the entry is “soluble”.
For “MSLRIIHICLWLLTGIFAEVSLSAQNPFIYHKGKTYKDVAAYRMEEIIDLNTHTPSTPILYEQQVPEHQSTLSYKVALPLYVRGIFFSRDSRPGDYQWPNNTNRLLPWMFNHLEDLTRSDYASIPSNALPSASGDALLLELADGEYLFAKAIAGSNSLSWFQVNQDGTLTLYVSTLGEDALTGRLPLLIFRKSSSVYHVFSDAYDSLIADKAVSALRKRADKQYFNAFDYLGWCTWEHYHYDIDETKILNDIDAIEASGIPVRYVLIDDGHIANKNRQLTSLVPDKKRFPNGWSRIMKRKQADKIRWIGLWYSLSGYWMGISAENDFPPEIRQVLHSYNGSLLPGTSTEKIETWYEYYVRTMKEYGFDFLKIDNQSFTLPLYMGGTQVIRQAKDCNLALEHQTHRMQMGLMNCMAQNVLNIDHTLYSSVTRASIDYKKYDENMAKSHLFQSYTNTLILGQTVWPDHDMFHSCDTVCGSLMARSKAISGGPVYLSDSPSEFIADNIRPLIDETGKIFRPAAPAIPTPESILTNPLQSGKAYREGHHHHHH”, the “soluble on expression in E. coli” value is recorded as “soluble”.

Values taken from the DeepSol protein solubility set.
